# Reference: US20190135908A1 (Novartis, published 2019)
# Positions count from the first letter of the chain named.
# B1: ABGDF15-A (antibody, human IgG1, kappa, V domains shown)
# VH: EVQLVQSGAEVKKPGESLKISCKGSGYSFTDYWISWVRQMPGKGLEWMGIIDPSGSYTIYSPSFQGQVTISADKSISTAYLQWSSLKASDTAMYYCARVSYYGGYFDIWGQGTLVTVSS
# VL: DIQMTQSPSSLSASVGDRVTITCRASQSISNNLNWYQQKPGKAPKLLIYAASNLQSGVPSRFSGSGSGTDFTLTISSLQPEDFATYYCFQLDHSPFTFGQGTKVEIKR
# notes: captured through anti-human Fc in the Biacore assay
# B2: ABGDF15-G (antibody, human IgG1, kappa, V domains shown)
# VH: QVQLVQSGAEVKKPGSSVKVSCKASGGTFSSHYINWVRQAPGQGLEWMGGIIPAFGGANYAQKFQGRVTITADESTSTAYMELSSLRSEDTAVYYCARFGSVYVSRYSSYYHMDVWGQGTLVTVSS
# VL: DIQMTQSPSSLSASVGDRVTITCRASQTIYRSLAWYQQKPGKAPKLLIYGASILQSGVPSRFSGSGSGTDFTLTISSLQPEDFATYYCLQRYTSPFTFGQGTKVEIKR
# notes: as for B1
# Tests used:
# [1] = target: T1, GDF15 mutant I285R (knuckle region), albumin fusion (human, UniProt Q99988 195-308); experiment: direct ELISA on coated albumin-fusion GDF15 mutant
# T1 construct: not shown: albumin fusion partner
# T1 chain: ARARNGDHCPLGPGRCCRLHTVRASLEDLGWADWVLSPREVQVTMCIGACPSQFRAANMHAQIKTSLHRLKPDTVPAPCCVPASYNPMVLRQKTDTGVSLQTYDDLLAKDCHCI
# Description: (§1) Antibody epitope was determined by a direct ELISA method with GDF15 mutants. Albumin fusion GDF15 mutants were coated in wells of a 96-well EIA plate. After blocking, serially diluted anti-hGDF15 human antibodies were added to the GDF15-coated wells, followed by incubation at an ambient temperature for a few hours. Antibody binding was detected using an anti-human IgG antibody conjugated with horseradish peroxidase (HRP) and HRP substrate.
# [2] = target: T2, GDF15 mutant L294R (knuckle region), albumin fusion (human, UniProt Q99988 195-308); experiment: direct ELISA on coated albumin-fusion GDF15 mutant
# T2 construct: not shown: albumin fusion partner
# T2 chain: T1 chain with R91I, L100R
# Description: as §1
# [3] = target: T3, GDF15 mutant W228R (wrist region), albumin fusion (human, UniProt Q99988 195-308); experiment: direct ELISA on coated albumin-fusion GDF15 variant
# T3 construct: not shown: albumin fusion partner
# T3 chain: T1 chain with W34R, R91I
# Description: as §1
# [4] = target: T4, GDF15 mutant S278R (back-of-hand), albumin fusion (human, UniProt Q99988 195-308); experiment: as above
# T4 construct: not shown: albumin fusion partner
# T4 chain: T1 chain with S84R, R91I
# Description: as §1
# [5] = target: T5, GDF15 mutant D289R (finger tip region), albumin fusion (human, UniProt Q99988 195-308); experiment: as above
# T5 construct: not shown: albumin fusion partner
# T5 chain: T1 chain with R91I, D95R
# Description: as §1
# [6] = target: T6, GDF15 mutant M253R (wrist region), albumin fusion (human, UniProt Q99988 195-308); experiment: as above
# T6 construct: not shown: albumin fusion partner
# T6 chain: T1 chain with M59R, R91I
# Description: as §1
# [7] = target: T7, GDF15 mutant Q247R (wrist region), albumin fusion (human, UniProt Q99988 195-308); experiment: as above
# T7 construct: not shown: albumin fusion partner
# T7 chain: T1 chain with Q53R, R91I
# Description: as §1
# [8] = target: T8, Rat GDF15 HIS: HIS-tagged rat GDF15 (rat, UniProt Q9Z0J6 189-303, limits assumed); experiment: Biacore SPR, IgG captured via anti-human Fc, GDF15 in flow
# T8 construct: also called Rat His-GDF15; not shown: His tag
# T8 sequence (looked up): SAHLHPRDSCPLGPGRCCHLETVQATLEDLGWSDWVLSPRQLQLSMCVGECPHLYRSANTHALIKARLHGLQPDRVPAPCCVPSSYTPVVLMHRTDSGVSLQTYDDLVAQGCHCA
# Description: (§2) Biacore assay is based on surface plasmon resonance (SPR) and were used to determine the binding affinity of antibodies to GDF15.
# (§3) Anti-human Fc capture antibody was immobilized at 0.5 μg/ml on CMS chip in all four flow cells to achieve 8000 to 12,000 resonance units (RU) on the surface. Anti-hGDF15 antibodies were captured at flow rate […], at 0.25 to 0.5 μg/ml on the chip to get about 30 RU in flow cells 2, 3 and 4. GDF15 ligand was flowed at […] over captured antibodies and reference flow cell 1 for 600 and 1200 seconds contact time. Eight doses serially diluted 1 to 2, ranging from 20 to 0.156 nM, were tested. All cycles were repeated twice, regenerated between cycles with 3M MgCl₂ at flow […], 20 seconds contact time. Data were normalized by subtracting reference flow cell results. Data were fit with 1:1 Kinetics model with RI (bulk refractive index) set constant at 0.
# [9] = target: T9, Mouse His-GDF15: HIS-tagged mouse GDF15 (mouse, UniProt Q9Z0J7 189-303); experiment: as above
# T9 construct: not shown: His tag
# T9 sequence (looked up): T8 sequence (looked up) with L4A, L63Q, R75K, Q110R
# Description: as §2, §3
# [10] = target: T10, Cyno His-GDF15: HIS-tagged cyno GDF15 (cynomolgus, UniProt G7PWZ3 197-308, limits assumed); experiment: as above
# T10 construct: not shown: His tag
# T10 sequence (looked up): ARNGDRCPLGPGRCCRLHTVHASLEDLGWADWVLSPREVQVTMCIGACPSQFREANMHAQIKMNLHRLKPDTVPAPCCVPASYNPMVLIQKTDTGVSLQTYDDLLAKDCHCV
# Description: as §2, §3
# [11] = target: T11, Human His-GDF15: HIS-tagged human GDF15 (human, UniProt Q99988 195-308); experiment: as above
# T11 construct: not shown: His tag
# T11 sequence: T1 chain with R91I
# Description: as §2, §3
# [12] = target: T12, Human GDF15 native: naturally produced human GDF15 purchased from Peprotech (human, UniProt Q99988 195-308); experiment: as above
# T12 construct: Bought protein
# T12 sequence: T1 chain with R91I
# Description: as §2, §3
# [13] = target: T12, Human GDF15 native: naturally produced …; experiment: Biacore SPR (rounded from Table 2, human GDF15 native); Biacore, not SET
# Description: as §3
# [14] = target: T13, GDF15 mutant S231R (knuckle region), albumin fusion (human, UniProt Q99988 195-308); experiment: direct ELISA: albumin fusion GDF15 mutant coated on the plate, serially diluted antibody, anti-human IgG-HRP detection
# T13 construct: not shown: albumin fusion partner
# T13 chain: T1 chain with S37R, R91I
# Description: as §1
# [15] = target: T12, Human GDF15 native: naturally produced …; experiment: Biacore SPR (rounded from Table 2, human GDF15 native)
# Description: as §3
# [16] = target: T14, human GDF15 (target of the SET measurements; form not stated) (human, UniProt Q99988 195-308, limits assumed); experiment: solution equilibrium titration (SET); SET, not Biacore
# T14 sequence: T1 chain with R91I
Binder,binding result [1],binding result [2],binding result [3],binding result [4],binding result [5],binding result [6],binding result [7],Kd [8] [pM],koff [8] [s⁻¹],kon [8] [M⁻¹ s⁻¹],Kd [9] [pM],koff [9] [s⁻¹],kon [9] [M⁻¹ s⁻¹],Kd [10] [pM],koff [10] [s⁻¹],kon [10] [M⁻¹ s⁻¹],Kd [11] [pM],koff [11] [s⁻¹],kon [11] [M⁻¹ s⁻¹],Kd [12] [pM],further results
B1,no binding,no binding,binds,binds,binds,binds,binds,23.2,0.000451,1.95e+07,56.8,0.000613,1.08e+07,13.4,0.000278,2.07e+07,2.62,0.000247,9.42e+07,11.3,koff [12]: 0.000374 s⁻¹; kon [12]: 3.3e+07 M⁻¹ s⁻¹; Kd [13]: 11 pM; binding result [14]: binds
B2,no binding,no binding,binds,binds,binds,binds,binds,138,0.000365,2.63e+06,154,0.000343,2.23e+06,120,0.000694,5.79e+06,136,0.000533,3.9e+06,88.2,Kd [15]: 88 pM; koff [12]: 0.000512 s⁻¹; kon [12]: 5.8e+06 M⁻¹ s⁻¹; Kd [16]: 20 pM; binding result [14]: binds
